Target: T1, Human ANGPTL4(26-406)-FLAG-His6-Avi (human, UniProt Q9BY76 24-406, biotin on the C-terminal Avi tag in the biotinylated preparations (immobilised form in SET, ELISA and Octet))
T1 sequence: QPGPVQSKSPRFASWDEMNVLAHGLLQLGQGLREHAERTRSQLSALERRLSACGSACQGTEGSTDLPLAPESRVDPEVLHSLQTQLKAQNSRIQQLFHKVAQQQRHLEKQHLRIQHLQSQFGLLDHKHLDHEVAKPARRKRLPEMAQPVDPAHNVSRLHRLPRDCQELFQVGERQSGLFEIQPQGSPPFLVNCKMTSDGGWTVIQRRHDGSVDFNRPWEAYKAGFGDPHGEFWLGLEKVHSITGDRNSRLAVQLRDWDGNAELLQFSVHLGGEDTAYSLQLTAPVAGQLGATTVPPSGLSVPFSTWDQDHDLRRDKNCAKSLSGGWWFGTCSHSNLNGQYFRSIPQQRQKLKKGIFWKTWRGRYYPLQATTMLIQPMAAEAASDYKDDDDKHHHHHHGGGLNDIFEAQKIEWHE
Experiment: cell-based or functional assay

- EC50 (read off the curve) [1(C]: ~3 nM
B1: MOR021798 (antibody, human IgG1, lambda, V domains shown)
VH: QVQLLESGGGLVQPGGSLRLSCAASGFTFSDYALHWVRQAPGKGLEWVSRISYMGSSTYYADSVKGRFTISRDNSKNTLYLQMNSLRAEDTAVYYCAREHYYSSPMGGVAVDNWGQGTLVTVSS
VL: DIVLTQPPSVSGAPGQRVTISCSGSSSNIGYNTVSWYQQLPGTAPKLLIYSNNIRPSGVPDRFSGSKSGTSASLAITGLQAEDEADYYCSSWDFLIKSLVFGGGTKLTVLG
notes: human IgG1
